Laboratory results reported in paper PMC7243271.
Read-outs that look alike come from different tables or passages of the source.

Legend:
Test in all cases: SEC-MALS
[1] = biological target: Nup358-KLC2-fusion protein (human | mouse) (UniProt P49792)
[2] = biological target: Nup358-min (residues 2147–2240 of human Nup358) (human) (UniProt P49792)
[3] = biological target: Nup358/W2224A/D2225A-KLC2-fusion protein (human | mouse) (UniProt P49792)
[4] = biological target: Nup358-KLC2-fusion protein (human | mouse) (UniProt P49792); remark: listed apart in the source

Measured: stoichiometry N

BicD2-CTD (residues 715–804 of human BicD2) (domain or fragment)
1: all assays above
